Experimental findings from the supplement of paper PMC9732359 are described below.

A short description of this data set: protein stability index of a GFP-peptide fusion (yeast GPS) (PSI 1-4); higher = more stable; sorted into four equal gates, so the index is relative within each strain. The essentials:
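Tiled yeast protein peptides of 17 residues were each joined downstream of GFP, on plasmids that also express Cherry. The pooled library was maintained in yeast, and mid-log cultures in leucine-free medium were sorted into four equal gates on the GFP/Cherry ratio. Plasmids from every gate were amplified by PCR and sequenced on Illumina, with barcodes linking reads to strains. The protein stability index of a peptide is its gate-number-weighted read frequency summed over the gates.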

± gives the uncertainty stated by the source.

Take SSKYAYMMNSQSPRGKI [YLR018C/POM34]: the protein stability index runs as follows: (doa10∆) 2.83 ± 0.062; (pdr5∆) 2.69 ± 0.065; (san1∆) 2.75 ± 0.044; (ubr1∆) 2.78 ± 0.038.
With LPSWSLGKWYSKEDYET [ARP7], the protein stability index reads like this: (doa10∆) 1.62 ± 0.17; (pdr5∆) 1.12 ± 0.14; (ubr1∆) 1.09 ± 0.11.
As to EDVLVNQILMSVNFFVS [RPL1A], the protein stability index by setting is: (doa10∆) 1.91 ± 0.044; (pdr5∆) 2.4 ± 0.045; (san1∆) 2.08 ± 0.068; (ubr1∆) 2.23 ± 0.035.
For RSWTLTSEMKVLSIPPA [YGL100W/SEH1], in that order: 2.13 ± 0.054, 2.18 ± 0.069, 2.37 ± 0.064 and 2.1 ± 0.072.
For FVDDMLRDYRFEDATRE [SNF5] the same measures were 2.92 ± 0.096, 3 ± 0.095, 3.19 ± 0.082 and 3.35 ± 0.046.
As for QLNASISLIPELSVVLS [RRI2], the protein stability index is 2.67 ± 0.064 (doa10∆), 2.96 ± 0.06 (pdr5∆), 2.98 ± 0.044 (san1∆) and 2.73 ± 0.039 (ubr1∆).
For ILIESRIHRLARYYRTV [RPS13], in that order: 2.45 ± 0.11, 2.06 ± 0.06, 2.74 ± 0.087 and 2.1 ± 0.051.
For QYTKDEQFYTKDIIDPK [RPN2], in that order: 3.53 ± 0.13, 3.24 ± 0.094, 2.78 ± 0.15 and 3.29 ± 0.065.
As for NGTISKTGKKNKVAKKN [SRP14], the protein stability index by setting is: (doa10∆) 3.51 ± 0.16; (pdr5∆) 3.45 ± 0.19; (san1∆) 3.09 ± 0.13; (ubr1∆) 3.17 ± 0.076.
For PAMAMEDLKNFIFQIIE [SRB8] the same measures were 2.62 ± 0.065, 2.9 ± 0.074, 2.73 ± 0.078 and 1.71 ± 0.05.
As for LSFVDIVLSKAASALDE [SIR4], the protein stability index is 1.84 ± 0.11 (doa10∆), 2.8 ± 0.071 (pdr5∆), 2.59 ± 0.14 (san1∆) and 2.21 ± 0.054 (ubr1∆).
In the case of YEQHIENIEPLDPINLP [PRP8], the protein stability index came to 2.38 ± 0.11 (doa10∆), 2.9 ± 0.091 (pdr5∆), 2.5 ± 0.1 (san1∆) and 2.8 ± 0.071 (ubr1∆).
For MLLLNDSVENSSNILED [SRB8], the protein stability index worked out at 2.65 ± 0.078 (doa10∆), 2.57 ± 0.078 (pdr5∆), 2.58 ± 0.065 (san1∆) and 2.38 ± 0.061 (ubr1∆).
For MTTWRKLYTKELSVTGS [YMR129W/POM152], in that order: 2.06 ± 0.078, 1.34 ± 0.072, 1.41 ± 0.14 and 1.14 ± 0.04.
As for SLTSKRLISQSLLASKS [RIP1], the protein stability index (ubr1∆) was determined as 1.36 ± 0.21.
SAEDQLYAITFRKGLGN [QCR2]: the protein stability index by setting is: (doa10∆) 3.06 ± 0.12; (pdr5∆) 3.14 ± 0.16; (san1∆) 2.96 ± 0.2; (ubr1∆) 3.03 ± 0.17.
On to KDEYLAQLDGRIGVLQA [NSL1], for which the protein stability index runs as follows: (doa10∆) 2.08 ± 0.064; (pdr5∆) 2.4 ± 0.046; (san1∆) 2.41 ± 0.074; (ubr1∆) 2.99 ± 0.046.
For CYPQFAERDSQGGFYKQ [UBP6], in that order: 3.31 ± 0.065, 3.28 ± 0.064, 3.12 ± 0.058 and 3.21 ± 0.044.
For QKKARTILQHLSEAWRC [PRP8], in that order: 1.96 ± 0.11, 1.8 ± 0.097, 2.28 ± 0.12 and 2.55 ± 0.16.
Turning to YEAPRHGHLGFLPRKRA [RPL3], the protein stability index by setting is: (doa10∆) 2.99 ± 0.1; (pdr5∆) 3.03 ± 0.071; (san1∆) 2.88 ± 0.05; (ubr1∆) 2.72 ± 0.09.
For DDKDCTIKISTNDDSIK [RGR1], in that order: 2.89 ± 0.068, 3.15 ± 0.067, 2.98 ± 0.052 and 2.96 ± 0.057.
For SNGLLSIVLLLLSQFGI [YML103C/NUP188] the same measures were 1.51 ± 0.12, 1.53 ± 0.083, 1.41 ± 0.18 and 2.19 ± 0.079.
Turning to CGLMTVIAKLNHNQFEC [RPB2], the protein stability index reads like this: (doa10∆) 2.33 ± 0.09; (pdr5∆) 2.35 ± 0.078; (san1∆) 1.5 ± 0.12; (ubr1∆) 1.7 ± 0.15.
For YLCFILSTRAGGLGLNL [SNF2], in that order: 2.32 ± 0.08, 2.04 ± 0.095, 2.19 ± 0.12 and 2.6 ± 0.11.
For SDNKKRSGSNAAASLPS [RPC82], in that order: 2.89 ± 0.058, 3.19 ± 0.06, 2.86 ± 0.042 and 3 ± 0.038.
Take MLWNLAAKKAMYTLSAQ [ASC1]: the protein stability index is, setting by setting: (doa10∆) 2.79 ± 0.069; (pdr5∆) 2.45 ± 0.062; (san1∆) 2.06 ± 0.073; (ubr1∆) 2.18 ± 0.077.
